Data set [1] concerns ob/ob mice. The experiment in a line: Oral (p.o.) administration of rhZAG to ob/ob mice. Format: in vivo, mouse. On the procedure: 50 ug per day of rhZAG was administered p.o. to Aston ob/ob mice. Oral dosing was achieved by assuming 5 mL/day consumption of water, and adding ZAG to achieve 50 ug per day dose based on that assumption. No attempt was made to correct for variations of consumption on a given day.
Experiment One (8 Day Oral ZAG Study): 50 ug of ZAG was administered p.o. daily in drinking water.
Experiment Two (8 Day Oral ZAG Plus Propranolol Study): 50 ug of ZAG administered p.o. daily, with and without propranolol. Propanolol blocks all of the effects of ZAG including decrease in body weight and blood glucose in the tolerance test, also blocking the rise in body temperature and the rise in plasma mouse ZAG, confirming that this occurs through a beta adrenergic receptor. […] It appears to do this by preventing the rise in mouse ZAG in the serum after oral administration of the rhZAG.
Experiment Three (Oral Study): ZAG administered p.o. daily over an extended time frame, with a recovery group split from the treated group beginning at 30 days (data not shown).

Data set [2] has as its system ob/ob mice. The experiment in a line: Interval / long-term administration of ZAG in ob/ob mice (pilot study). The data set is classed as in vivo, mouse. Here is the method: While not wanting to be limited by theory, it may be that the subjects are receiving too much ZAG or that there is receptor desensitization as is seen with TNF. A pilot study was performed with 2 mice in each group to determine optimal scheduling of ZAG delivery.

Another data set has as its system male Wistar rats. As to the kind of experiment: mature male Wistar rats, daily i.v. ZAG for 10 days: body weight, body composition, plasma metabolites. The data set is classed as in vivo, rat. On the procedure:
Animal—Rats. Mature male Wistar rats (one year old from our own colony) weighing 540±82.5 g were housed individually and treated once daily i.v., with either ZAG in PBS (100 μl) (50 μg per 100 g body weight), or with PBS (100 μl) as a control. Both food and water intake and body weight were measured daily. Animals were given free access to food (Special Diet Services, Essex, UK) and water ad libitum. The animal experiment was carried out under the welfare conditions imposed by the British Home Office. After 10 days treatment the animals were terminated and the body composition determined. Animals were heated to 80-90° C. for 7 days until constant weight was achieved. The water content was then determined from the difference between the wet and dry weight. Lipids were extracted from the dry carcass using a sequence of chloroform:methanol (1:1), ethanol/acetone (1:1) and diethyl ether (120 ml of each) as described by Lundholm et al (14). The solvents were evaporated and the fat weighed. The non-fat carcass mass was calculated as the difference between the initial weight of the carcass and the weight of water and fat.
Serum Metabolite Determinations. Non-esterified fatty acids (NEFA) were determined using a Wako-ASC-ACOD kit (Wako Chemical GmbH, Neuss, Germany). Triglycerides were determined using a Triglyceride kit (Sigma Chemical Co., Poole, United Kingdom) and 3-hydroxybutyrate by a quantitative enzymatic determination kit (Sigma). Glucose was measured using a glucose analyser (Beckman, Irvine, Calif.) and glycerol was determined enzymatically using the method of Wieland as described in “Methods of Enzymatic Analysis” (Ed. Bergmeyer, H. U.) Vol. 3, pp1404-1409, published by Academic Press, London (1974).

A further data set addresses T1, human β2-AR (Homo sapiens, UniProt P07550).
T1 construct: host or cells: CHO-K1
The experiment in a line: Cyclic AMP production in CHO-K1 cells transfected with β2-AR. The data set is classed as cell-based. The conditions noted are these: CHO-K1 β2-AR. Here is the method:
(§1) Binding Studies and Cyclic AMP Determination. CHO-K1 cells transfected with the human β1- and β2-AR obtained from University of Nottingham, UK, while CHOK1 cells transfected with the β3-AR were obtained from Astra Zeneca, Macclesfield, Cheshire, UK. Gene expression was under the control of hygromycin, together with a β-gal reporter construct, selected for resistance to G418. They were maintained in DMEM supplemented with 2 mM glutamine, hygromycin B ([…]), G418 ([…]), and 10% FCS, under an atmosphere of 10% CO2 in air. To determine the effect of agonists on cyclic AMP production, cells were grown in 24-well plates containing 1 ml of nutrient medium.

Another data set concerns the target β3-AR (Homo sapiens, UniProt P13945). The experiment in a line: Cyclic AMP production in CHO-K1 cells transfected with β3-AR. The data set is classed as cell-based. Also noted: host or cells: CHO-K1. The following applies: CHO-K1 β3-AR. Here is the method:
as §1

Data set [3] deals with ob/ob mice. The experiment in a line: Glucose tolerance test in ob/ob mice after 3 days of ZAG. Format: in vivo, mouse. From the text:
FIG. 2A is a graphical diagram showing glucose tolerance of ob/ob mice treated with ZAG. Plasma glucose levels in ob/ob mice in the fed state either treated with ZAG (▪) or PBS (♦) for 3 days after […]. p<0.001 from PBS. Blood samples were removed from the tail vein at intervals after glucose administration and used for the measurement of glucose and insulin.
FIG. 2B is a graphical diagram showing plasma insulin levels in ob/ob mice treated with ZAG after oral administration of glucose (1 g/kg). p<0.001 from PBS.
To investigate this, a glucose tolerance test was performed, on fed animals, after 3 days of ZAG administration (FIG. 2A). […] The glucose uptake in gastrocnemius muscle of ZAG treated mice was greater than the response to insulin in non-treated animals.

[4] abbreviates: 50 ug p.o. daily in drinking water, 8 days.

Marks after values point to notes of the source that are not given here.

β3-AR, sequence (P13945 whole entry): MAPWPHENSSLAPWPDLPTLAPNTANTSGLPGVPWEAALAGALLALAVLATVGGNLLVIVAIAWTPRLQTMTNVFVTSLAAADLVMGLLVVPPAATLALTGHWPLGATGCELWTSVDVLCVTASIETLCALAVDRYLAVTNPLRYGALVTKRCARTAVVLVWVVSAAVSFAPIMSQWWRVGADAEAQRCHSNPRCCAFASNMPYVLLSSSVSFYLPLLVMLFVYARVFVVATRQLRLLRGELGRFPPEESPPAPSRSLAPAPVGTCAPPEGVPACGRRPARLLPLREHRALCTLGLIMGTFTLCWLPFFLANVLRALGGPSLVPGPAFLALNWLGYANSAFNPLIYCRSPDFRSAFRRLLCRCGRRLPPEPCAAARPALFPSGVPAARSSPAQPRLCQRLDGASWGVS

B1: ZAG: recombinant full length human zinc-α2-glycoprotein (SEQ ID NO: 1) secreted by transfected HEK293F cells; lipid mobilizing factor (protein, listed as Homo sapiens)
chain: QENQDGRYSLTYIYTGLSKHVEDVPAFQALGSLNDLQFFRYNSKDRKSQPMGLWRQVEGMEDWKEDSQLQKAREDMETLKDIVEYYNDSNGSHVLQGRFGCEIENNRSSGAFWKYYYDGKDYIEFNKEIPAWVPFDPAAQITKQKWEAEPVYVQRAKAYLEEECPATLRKYLKYSKNILDRQDPPSVVVTSHQAPGEKKKLKCLAYDFYPGKIDVHWTRAGQVQEPELRGDVLHNGNGTYQSWVVVAVPPQDTAPYSCHVQHSSLAQPLVVPWEAS
B1: in the data set on ob/ob mice [1] (setting [4]), the “outcome of oral ZAG” value was “weight loss, increase in body temperature and a lowering of urinary glucose occurred”; the “rhZAG in serum after oral administration” value is “absence of rhZAG in serum”. The “endogenous murine ZAG after oral rhZAG” value with ob/ob mice [1] (50 ug p.o. daily, 8 days) is “increase in murine ZAG in serum and WAT”. The same molecule registered a body weight lost in the data set with ob/ob mice [1] (p.o. daily, half way through the extended study) of 13.5%. Further, the “persistence of orally administered rhZAG in the stomach” value in the data set on ob/ob mice [1] (p.o., ob/ob mice) is no less than 24 h. Moreover, in the data set on ob/ob mice [1] (recovery group), the “time before 50% reversion of urinary glucose to control after treatment stop” value is reported as 12 days. In the data set on ob/ob mice [2] (from a 90 g mouse, in about 3 weeks), this molecule showed a weight loss of 8 to 10 g. Further, the “outcome of long-term daily administration” value in the data set on ob/ob mice [2] (ob/ob mice) was “cessation of weight loss”. For the same molecule, the “time to significant elevation in body temperature” value in the data set on male Wistar rats (after the first administration) is reported as no more than 24 h. In addition, in the data set with male Wistar rats (male rats, after 10 days), the Final weight is recorded as 525 ± 1 g and the Weight change was -5 ± 1 g. In the data set on male Wistar rats (rats), the “elevation in body temperature” value turned out to be 0.4 °C. Further, in the data set with male Wistar rats (rats treated for 10 days), the “Glucose (plasma)” value is reported as 16.2 ± 2.1^c mmol/l, the “Glycerol (plasma)” value is reported as 450 ± 51^c umol/l, the “NEFA (plasma)” value is listed as 0.26 ± 0.06^b mEq/l and the “Trigylcerides (plasma)” value was 1.1 ± 0.09^a mmol/l. For the same molecule, in the data set with male Wistar rats (rats, 10 days), the “decrease in plasma levels of NEFA” value came to 55%; the “increase in plasma glycerol concentration” value turned out to be 50%; the “reduction of plasma levels of glucose and triglycerides” value is recorded as 36-37%. Moreover, the “decrease in body weight” value in the data set with male Wistar rats (rats, after 10 days, 50 μg/100 g b.w. i.v. daily) amounted to 5 g. Further, the “concentration required to stimulate cyclic AMP production” value in the data set with human β2-AR came out at 580 nM. Further, the “lowest concentration to stimulate cyclic AMP production” value in the data set with β3-AR amounted to 350 nM. For the same molecule, the “blood glucose levels in glucose tolerance test” value in the data set with ob/ob mice [3] (fed ob/ob mice, after 3 days of ZAG) is listed as “only a small rise”. Further, the “plasma insulin levels in glucose tolerance test” value in the data set on ob/ob mice [3] (ob/ob mice, 60 min of observation) was “significantly lower”.
